One substance from patent US20180172709A1 can be followed below.

For the test, the target named is recombinant Syrian golden hamster proteinase K-sensitive prion protein (residues 23-231) (Syrian golden hamster) (UniProt Q60468). Put plainly: cell-based or functional assay.

For “hamster proteinase K resistant prion protein (263K scrapie strain), purified from hamster brains or (from UniProt P04273 23-231)”, the amount of PrP^Sc seed detected, 4-hour QUIC at 65° C. amounted to 100 fg; the amount of PrP^Sc seed detected, 8-hour QUIC at 55° C. worked out at 10 fg; the amount of PrP^Sc seed detected, triplicate 18-hour QUIC at 55° C. worked out at 1 fg; the amount of PrP^Sc seed frequently positive, first 48-hour QUIC round was 25 to 50 ag. The amount of PrP^Sc seed positive in one sample, second serial QUIC round was found to be 10 ag.
